The results in this text go back to US20240041922A1, “METHODS AND COMPOSITIONS” (Monash University, priority 2020, published 2024).

For this assay, the target named is zebrafish Ccr5 (Ccr5-like, on pax3a+ muscle stem cells of larval zebrafish) (zebrafish). Description: cell-based or functional assay.

The substance “recombinant murine CCL8/MCP-2 (PeproTech) (from UniProt Q9Z121 24-97) (ligand)” registered a cell proliferation external to the site of injury in larval zebrafish (EdU) of 43% and a wound site proliferation in larval zebrafish (EdU) of 28.3%.
